B1: cADO-sll0208 (sll0208) (Synechocystis sp. PCC 6803 substr. Kazusa; L148R) (protein)
chain: MPELAVRTEFDYSSEIYKDAYSRINAIVIEGEQEAYSNYLQMAELLPEDKEELTRLAKMENRHKKGFQACGNNLQVNPDMPYAQEFFAGLHGNFQHAFSEGKVVTCLLIQALIIEAFAIAAYNIYIPVADDFARKITEGVVKDEYTHRNYGEEWLKANFATAKEELEQANKENLPLVWKMLNQVQGDAKVLGMEKEALVEDFMISYGEALSNIGFSTREIMRMSSYGLAGV
notes: full gene in pET-28a(+) (NdeI/XhoI), E. coli BL21(DE3), nickel column; apo enzyme reconstituted with stoichiometric ferrous iron (diferrous form)
B2: cADO-sll0208 (sll0208) (Synechocystis sp. PCC 6803 substr. Kazusa) (protein)
chain: MPELAVRTEFDYSSEIYKDAYSRINAIVIEGEQEAYSNYLQMAELLPEDKEELTRLAKMENRHKKGFQACGNNLQVNPDMPYAQEFFAGLHGNFQHAFSEGKVVTCLLIQALIIEAFAIAAYNIYIPVADDFARKITEGVVKDEYTHLNYGEEWLKANFATAKEELEQANKENLPLVWKMLNQVQGDAKVLGMEKEALVEDFMISYGEALSNIGFSTREIMRMSSYGLAGV
notes: as for B1
B3: cADO-sll0208 (sll0208) (Synechocystis sp. PCC 6803 substr. Kazusa; D49H/N123H) (protein)
chain: MPELAVRTEFDYSSEIYKDAYSRINAIVIEGEQEAYSNYLQMAELLPEHKEELTRLAKMENRHKKGFQACGNNLQVNPDMPYAQEFFAGLHGNFQHAFSEGKVVTCLLIQALIIEAFAIAAYHIYIPVADDFARKITEGVVKDEYTHLNYGEEWLKANFATAKEELEQANKENLPLVWKMLNQVQGDAKVLGMEKEALVEDFMISYGEALSNIGFSTREIMRMSSYGLAGV
notes: as for B1
B4: cADO-1593 (1593) (Synechococcus elongatus PCC 7942 = FACHB-805; L146T) (protein)
chain: MPQLEASLELDFQSESYKDAYSRINAIVIEGEQEAFDNYNRLAEMLPDQRDELHKLAKMEQRHMKGFMACGKNLSVTPDMGFAQKFFERLHENFKAAAAEGKVVTCLLIQSLIIECFAIAAYNIYIPVADAFARKITEGVVRDEYTHRNFGEEWLKANFDASKAELEEANRQNLPLVWLMLNEVADDARELGMERESLVEDFMIAYGEALENIGFTTREIMRMSAYGLAAV
notes: codon-optimised synthetic gene, E. coli BL21(DE3), nickel column; apo enzyme reconstituted with stoichiometric ferrous iron (diferrous form)
B5: cADO-1593 (1593) (Synechococcus elongatus PCC 7942 = FACHB-805; W178R) (protein)
chain: MPQLEASLELDFQSESYKDAYSRINAIVIEGEQEAFDNYNRLAEMLPDQRDELHKLAKMEQRHMKGFMACGKNLSVTPDMGFAQKFFERLHENFKAAAAEGKVVTCLLIQSLIIECFAIAAYNIYIPVADAFARKITEGVVRDEYLHRNFGEEWLKANFDASKAELEEANRQNLPLVRLMLNEVADDARELGMERESLVEDFMIAYGEALENIGFTTREIMRMSAYGLAAV
notes: as for B4
B6: cADO-1593 (1593) (Synechococcus elongatus PCC 7942 = FACHB-805; F150Y) (protein)
chain: MPQLEASLELDFQSESYKDAYSRINAIVIEGEQEAFDNYNRLAEMLPDQRDELHKLAKMEQRHMKGFMACGKNLSVTPDMGFAQKFFERLHENFKAAAAEGKVVTCLLIQSLIIECFAIAAYNIYIPVADAFARKITEGVVRDEYLHRNYGEEWLKANFDASKAELEEANRQNLPLVWLMLNEVADDARELGMERESLVEDFMIAYGEALENIGFTTREIMRMSAYGLAAV
notes: as for B4
B7: cADO-1593 (1593) (Synechococcus elongatus PCC 7942 = FACHB-805; F150Y/Q49H) (protein)
chain: MPQLEASLELDFQSESYKDAYSRINAIVIEGEQEAFDNYNRLAEMLPDHRDELHKLAKMEQRHMKGFMACGKNLSVTPDMGFAQKFFERLHENFKAAAAEGKVVTCLLIQSLIIECFAIAAYNIYIPVADAFARKITEGVVRDEYLHRNYGEEWLKANFDASKAELEEANRQNLPLVWLMLNEVADDARELGMERESLVEDFMIAYGEALENIGFTTREIMRMSAYGLAAV
notes: as for B4
B8: cADO-1593 (1593) (Synechococcus elongatus PCC 7942 = FACHB-805; F150Y/N123H/Q49H) (protein)
chain: MPQLEASLELDFQSESYKDAYSRINAIVIEGEQEAFDNYNRLAEMLPDHRDELHKLAKMEQRHMKGFMACGKNLSVTPDMGFAQKFFERLHENFKAAAAEGKVVTCLLIQSLIIECFAIAAYHIYIPVADAFARKITEGVVRDEYLHRNYGEEWLKANFDASKAELEEANRQNLPLVWLMLNEVADDARELGMERESLVEDFMIAYGEALENIGFTTREIMRMSAYGLAAV
notes: as for B4

What follows are proteins tested on CCCCCCC=O (assay: purified protein). Settings: NADH 750 uM, PMS 75 uM, catalase 1 mg/ml, ferrous ammonium sulfate 80 uM, 100 mM HEPES pH 7.2, 100 mM KCl.
Format: biochemical, Synechocystis sp. PCC 6803

Protein | Km [µM] | kcat [s⁻¹] | kcat/Km [M⁻¹ s⁻¹]
B1 | 320 ± 80 | 0.0152 ± 0.00133 | 47.3 ± 5
B2 | 350 ± 70 | 0.00983 ± 0.000667 | 28.2 ± 3.33
B3 | 380 ± 80 | 0.0138 ± 0.00133 | 36.3 ± 3.33

Substrate: CCCCCCC=O
Assay: purified protein
Format: biochemical, Synechococcus elongatus
Settings: NADH 750 uM, PMS 75 uM, catalase 1 mg/ml, ferrous ammonium sulfate 80 uM, 100 mM HEPES pH 7.2, 100 mM KCl
Remark: another data set of the same source

Protein | Km [µM] | kcat [s⁻¹] | kcat/Km [M⁻¹ s⁻¹]
B4 | 340 ± 80 | 0.0157 ± 0.00133 | 46 ± 5
B5 | 340 ± 80 | 0.0302 ± 0.0025 | 88.7 ± 6.67
B6 | 200 ± 40 | 0.0125 ± 0.000667 | 62.5 ± 6.67
B7 | 330 ± 50 | 0.0145 ± 0.000667 | 44 ± 3.33
B8 | 350 ± 20 | 0.0173 ± 0.000333 | 49.5 ± 5

From article PMC5356278, “Identification of residues important for the activity of aldehyde-deformylating oxygenase through investigation into the structure-activity relationship” (BMC Biotechnology, 2017)
